The values below come from US20240254201A1 (ACADEMY OF MILITARY MEDICAL SCIENCE PLA, published 2024).

In experiment [1] the target is T1, GPdMucin (Ebola virus (EBOV), UniProt Q05320 33-632).
T1 construct: domain: GPdMucin; also called GPΔMuc; GPdmucin-His6
Kind of experiment: ELISA on coated truncated GP.

The target of experiment [2] is T1, GPdMucin. Briefly: SPR, BIACORE 3000; 2G1 captured by anti-human IgG Fc on CM5, GPdMucin as analyte.

B1: monoclonal antibody 2G1 (antibody, V domains shown)
VH: EVQLVESGGGLVKRGGSLRLSCVVSGYTFGGYSMHWVRQAPGKGLEWVSGISSSSYYKYYADSVKGRFTISRDNAKNSLYLQMNSLRAEDTAVYYCARDMGYCSGGSCPNFDFWGQGTTVTVSS
VL: DIQMTQSPSSLSASVGDRVTITCRTSQSISNYLNWYQQIPGKAPKLLISTASNLHSGVSSRFSGSGSGTHFTLTISSLQPEDFATYYCQQSYSTPSFGQGTKVEIKR
notes: also called 2G1-WT; wild-type 2G1
In the experiment with GPdMucin [1], B1 displayed a concentration for a half-maximal effect (EC50) of 3.7 ng/mL. In the experiment with GPdMucin [2], this molecule returned a dissociation constant Kd of 734 pM, an off-rate (koff) of 3.75e-05 s⁻¹ and a kon of 51100 M⁻¹ s⁻¹.
